Assay [1] concerns the target GST tagged ecto-basigin (recombinant mouse basigin) (mouse (C57BL/6J)) (UniProt P18572). Briefly: SPR; Biacore X100; recombinant mouse basigin (GST tagged) immobilised on CM5 chip by amine coupling; PyEBL regions as analytes; HBS-EP+ (10 mM HEPES pH 7.4, 150 mM NaCl, 3 mM EDTA, 0.05% P20); single-cycle kinetics, 1:1 binding model.
In assay [2] the target is T1, GST tagged ecto-basigin (recombinant mouse basigin) (mouse (C57BL/6J), UniProt P18572 22-325).
T1 chain: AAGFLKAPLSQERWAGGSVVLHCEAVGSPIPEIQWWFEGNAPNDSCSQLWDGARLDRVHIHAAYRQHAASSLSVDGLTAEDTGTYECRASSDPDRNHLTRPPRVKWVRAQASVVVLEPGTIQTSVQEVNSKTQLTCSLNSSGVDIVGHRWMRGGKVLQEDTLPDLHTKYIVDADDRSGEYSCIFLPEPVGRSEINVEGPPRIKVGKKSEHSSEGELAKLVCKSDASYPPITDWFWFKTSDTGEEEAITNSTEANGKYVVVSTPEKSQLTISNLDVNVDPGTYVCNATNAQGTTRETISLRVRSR
Kind of assay: SPR.

As to “recombinant PyEBL C351Y (domain or fragment)”, in assay [1], the Kd is 26 nM. Same read-out and setting: as for “recombinant PyEBL R1-2 (amino acid V28-G437) (domain or fragment)”, the figure is 16 nM; as for “recombinant PyEBL R2, the N-terminal Cys-rich Duffy binding-like region (E113-G437) (domain or fragment)”, 34 nM. The same measure, in the same setting: as for “recombinant PyEBL ectodomain spanning region 1 to region 6 (PyEBL R1-6; amino acids V28-N788) (domain or fragment)”, the figure is 33 nM.

B1: recombinant PyEBL R1-2 (amino acid V28-G437) (domain or fragment)
chain: VNLLKRTYESFQSFPLKNNSGNRILYELKESLYNIENGETWGDLVSKDNEIFGGKDHILSENYTSDSVNSKKESNFLETGKISLVEKNGNVNYKDYFDKYQVNECKEKNKNEIHAWICDNEKQNCIPSRRINLCTKRLEIIPDTIKIPDNKTKELLMDYFKQFIYKDAAREGELLLNKYDDKNNNEYCNDMINSFGDYKNIVEGTGLKNVANESLLELKIQNIFGTDDNAKRNRKTWWKNHEHIVWKAMVLGKNFNETSNYKNVCTNYKLEDYHSQIERWTREWIQEFSVQYFKEANKINNKCTKKSNISTESICINNECKNACNTYEAWISVNKSKWDTLLQRFSQFNKSYFSEETCRDKAYNSLMIEFKEAYEANFENVINLDDDHYTGLCVCSSVKPSNTPINNNLG
In the case of B1, the koff in assay [2] worked out at 0.00713 s⁻¹.

B2: recombinant PyEBL ectodomain spanning region 1 to region 6 (PyEBL R1-6; amino acids V28-N788) (domain or fragment)
chain: VNLLKRTYESFQSFPLKNNSGNRILYELKESLYNIENGETWGDLVSKDNEIFGGKDHILSENYTSDSVNSKKESNFLETGKISLVEKNGNVNYKDYFDKYQVNECKEKNKNEIHAWICDNEKQNCIPSRRINLCTKRLEIIPDTIKIPDNKTKELLMDYFKQFIYKDAAREGELLLNKYDDKNNNEYCNDMINSFGDYKNIVEGTGLKNVANESLLELKIQNIFGTDDNAKRNRKTWWKNHEHIVWKAMVLGKNFNETSNYKNVCTNYKLEDYHSQIERWTREWIQEFSVQYFKEANKINNKCTKKSNISTESICINNECKNACNTYEAWISVNKSKWDTLLQRFSQFNKSYFSEETCRDKAYNSLMIEFKEAYEANFENVINLDDDHYTGLCVCSSVKPSNTPINNNLGYKQTLETQNPTDASQNTLFPPFSTGTETDLFKEDDDDNGGFDLLSYNNADAQNLRNSTPTDQVGVNNEQNKLNQNAESNNKYELQIMGNHANSDNTYHNIIIPSQENNIYTSTPESVTINPTSTSNTNENQTLTPNSTLTPTLTSNSNPTQIPTQPQPQFPIPPQPQFPIPPETQFPIPPETQIPTPTLNPNATNKGVKEHHFNTNGIENGNTMKDQMNIPPIKFNIDPKHDNTINGGFSRINNDNDSENANKLGIDEYEHRDIKKSRENIIMLANENVCNGNPGLKYCESINNKYFHGTCSKSQTQNLCCSISNYCIKFFNINSKKYYDCMNEEFMAPDYNCFQKESYSN
Take B2: in assay [2], the koff was found to be 0.00106 s⁻¹.

B3: recombinant PyEBL R2, the N-terminal Cys-rich Duffy binding-like region (E113-G437) (domain or fragment)
chain: EKNGNVNYKDYFDKYQVNECKEKNKNEIHAWICDNEKQNCIPSRRINLCTKRLEIIPDTIKIPDNKTKELLMDYFKQFIYKDAAREGELLLNKYDDKNNNEYCNDMINSFGDYKNIVEGTGLKNVANESLLELKIQNIFGTDDNAKRNRKTWWKNHEHIVWKAMVLGKNFNETSNYKNVCTNYKLEDYHSQIERWTREWIQEFSVQYFKEANKINNKCTKKSNISTESICINNECKNACNTYEAWISVNKSKWDTLLQRFSQFNKSYFSEETCRDKAYNSLMIEFKEAYEANFENVINLDDDHYTGLCVCSSVKPSNTPINNNLG
Turning to B3, the dissociation rate constant (koff) in assay [2] was 0.00104 s⁻¹.
